Measurements taken from IntAct's records for PubMed 26418745.

B1: ALK tyrosine kinase receptor (Homo sapiens), Q9UM73 (parent)
chain: MGAIGLLWLLPLLLSTAAVGSGMGTGQRAGSPAAGPPLQPREPLSYSRLQRKSLAVDFVVPSLFRVYARDLLLPPSSSELKAGRPEARGSLALDCAPLLRLLGPAPGVSWTAGSPAPAEARTLSRVLKGGSVRKLRRAKQLVLELGEEAILEGCVGPPGEAAVGLLQFNLSELFSWWIRQGEGRLRIRLMPEKKASEVGREGRLSAAIRASQPRLLFQIFGTGHSSLESPTNMPSPSPDYFTWNLTWIMKDSFPFLSHRSRYGLECSFDFPCELEYSPPLHDLRNQSWSWRRIPSEEASQMDLLDGPGAERSKEMPRGSFLLLNTSADSKHTILSPWMRSSSEHCTLAVSVHRHLQPSGRYIAQLLPHNEAAREILLMPTPGKHGWTVLQGRIGRPDNPFRVALEYISSGNRSLSAVDFFALKNCSEGTSPGSKMALQSSFTCWNGTVLQLGQACDFHQDCAQGEDESQMCRKLPVGFYCNFEDGFCGWTQGTLSPHTPQWQVRTLKDARFQDHQDHALLLSTTDVPASESATVTSATFPAPIKSSPCELRMSWLIRGVLRGNVSLVLVENKTGKEQGRMVWHVAAYEGLSLWQWMVLPLLDVSDRFWLQMVAWWGQGSRAIVAFDNISISLDCYLTISGEDKILQNTAPKSRNLFERNPNKELKPGENSPRQTPIFDPTVHWLFTTCGASGPHGPTQAQCNNAYQNSNLSVEVGSEGPLKGIQIWKVPATDTYSISGYGAAGGKGGKNTMMRSHGVSVLGIFNLEKDDMLYILVGQQGEDACPSTNQLIQKVCIGENNVIEEEIRVNRSVHEWAGGGGGGGGATYVFKMKDGVPVPLIIAAGGGGRAYGAKTDTFHPERLENNSSVLGLNGNSGAAGGGGGWNDNTSLLWAGKSLQEGATGGHSCPQAMKKWGWETRGGFGGGGGGCSSGGGGGGYIGGNAASNNDPEMDGEDGVSFISPLGILYTPALKVMEGHGEVNIKHYLNCSHCEVDECHMDPESHKVICFCDHGTVLAEDGVSCIVSPTPEPHLPLSLILSVVTSALVAALVLAFSGIMIVYRRKHQELQAMQMELQSPEYKLSKLRTSTIMTDYNPNYCFAGKTSSISDLKEVPRKNITLIRGLGHGAFGEVYEGQVSGMPNDPSPLQVAVKTLPEVCSEQDELDFLMEALIISKFNHQNIVRCIGVSLQSLPRFILLELMAGGDLKSFLRETRPRPSQPSSLAMLDLLHVARDIACGCQYLEENHFIHRDIAARNCLLTCPGPGRVAKIGDFGMARDIYRASYYRKGGCAMLPVKWMPPEAFMEGIFTSKTDTWSFGVLLWEIFSLGYMPYPSKSNQEVLEFVTSGGRMDPPKNCPGPVYRIMTQCWQHQPEDRPNFAIILERIEYCTQDPDVINTALPIEYGPLVEEEEKVPVRPKDPEGVPPLLVSQQAKREEERSPAAPPPLPTTSSGKAAKKPTAAEISVRVPRGPAVEGGHVNMAFSQSNPPSELHKVHGSRNKPTSLWNPTYGSWFTEKPTKKNNPIAKKEPHDRGNLGLEGSCTVPPNVATGRLPGASLLLEPSSLTANMKEVPLFRLRHFPCGNVNYGYQQQGLPLEAATAPGAGHYEDTILKSKNSMNQPGP
partner: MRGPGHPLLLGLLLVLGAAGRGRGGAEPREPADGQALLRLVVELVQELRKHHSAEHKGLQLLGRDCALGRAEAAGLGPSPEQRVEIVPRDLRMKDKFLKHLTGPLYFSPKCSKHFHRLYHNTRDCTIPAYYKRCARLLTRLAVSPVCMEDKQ

Variants of: B1
Details: with alkl2_human ALKAL2, Q6UX46

Row | Variant | effect of a mutation on the interaction
1 | G740D | disrupting interaction strength
2 | G823D | disrupting interaction strength

The next lines start with the values.

Row | effect of a mutation on the interaction | Variant
3 | disrupting interaction strength | G934D
4 | disrupting interaction strength | G893E
